# B1: pK15 CT^WT: pK15 cytoplasmic tail fused to GST at its N-terminal end, phosphorylated in vitro by Src (protein)
# chain: SQLLNEVELQEVNRDPPNVFGYASILVSGAEESREPSPQPDQSGMSILRVDGGSAFRIDTAQAATQPTDDLYEEVLFPRN
# modifications: tyrosine-phosphorylated in vitro by Src; sites not stated for this construct; left off: GST, N-terminal, kept
# Assays:
# Src kinase = assay: in vitro phosphorylation of pK15 CT by Src; format: biochemical; conditions: human GST-6xHis Src or chicken 2xStrep Src
# From the text: We expressed and purified the pK15 cytoplasmic tail (pK15 CT) fused to GST at its N-terminal end in bacteria and phosphorylated it in vitro using a commercially obtained human GST-6xHis Src, or a recombinant chicken 2xStrep Src kinase expressed in insect cells. In parallel, the GST-pK15 CT domain carrying the Y^481F mutation, or GST protein alone, were subjected to the same procedure. […] Following in vitro phosphorylation, pK15 CT^WT and pK15 CT^Y481F were used to pull down transiently expressed (Fig 2A) or endogenous (Fig 2B) PLCγ1 from HEK 293 lysates.
# The GST-fused cytoplasmic tail of pK15 (GST-pK15 CT) was in vitro phosphorylated by recombinant human GST-6xHis Src kinase (ActiveMotif, 0.4 μg/ml per kinase reaction, 10 minutes at 30°C), or a recombinant chicken 2xStrep-Src kinase (10 μg/ml per kinase reaction, 30 minutes at 25°C). GST-pK15 CT was used at 4.8 μM or 6 μM and 50 μl or 100 μl reaction volumes for AlphaLISA and 3–6 μl glutathione beads with K15 and 25 μl reaction volume for GST pulldown experiments. […]
# Supplementary file ppat.1009635.s001.tif: S1 Fig Both pK15 Y^431 and Y^481 are phosphorylated by recombinant Src kinase. […] Proteins were then analysed by WB using an antibody to pTyr. […]
# [1] = test system: PLCγ1 (transfected and endogenous, HEK-293T lysates); assay: GST-pulldown, full length PLCγ1; format: binding; conditions: in vitro phosphorylated by Src; transfected and endogenous PLCγ1, HEK 293 lysates; Western blot
# Experimental: (§1) Fig 2 K15 phosphorylation results in a stronger binding to PLCγ1. (A) An expression plasmid for an S-tagged full length PLCγ1 or the empty vector (EV) were transfected in HEK-293T cells. After 30h cells were lysed and a GST-pulldown assay was performed with GST-fused pK15 CT (WT), the pK15 CT Y^481F mutant (Y^481F) or GST that had been bound to glutathione beads and previously phosphorylated by GST-6xHis Src (+) or left unphosphorylated (-). Bound proteins were analysed by WB using antibodies to the S tag on PLCγ1 and pTyr. (B) Untransfected HEK-293T cells were lysed and a GST-pulldown assay with pre-phosphorylated (+) or unphosphorylated (-) GST-fused pK15 CT WT/Y^481F or GST was performed and analysed by WB as in (A). (C) An expression plasmid for an S-tagged PLCγ1 SA or the empty vector were transfected in HEK-293T cells. […]
# (§2) HEK293T cells were washed once with cold PBS 30 hours after transfection, lysed in IP buffer (50 mM Tris pH7.6, 60 mM NaCl, 6.25 mM EDTA, 1% (v/v) glycerol, 0.04% (v/v) NP-40) on ice for 30 minutes, sonicated shortly and cleared by centrifugation for 10 minutes at 20.000g, 4°C. […] Beads were then washed 5 times in 500 μl IP buffer (or for purified proteins IP buffer with 200 mM NaCl), suspended in 10 μl of 5x Laemmli sample buffer (60 mM Tris pH6.8, 24% (v/v) glycerol, 2% (v/v) SDS, 5% (v/v) β-mercaptoethanol, 0.01% Bromphenol Blue) and analysed by western blot.
# PLCγ1 SA = assay: GST-pulldown, PLCγ1 SA; format: binding
# Experimental: as §1, §2
molecule,measurement,setting,value
B1,pK15 bands detected after Src phosphorylation (pTyr Western blot),Src kinase,a dominant (bottom) and a minor (top) pK15 band
same,interaction with PLCγ1 (GST-pulldown),[1],substantial increase in its interaction with PLCγ1
same,interaction with PLCγ1 SA (GST-pulldown),"PLCγ1 SA; in vitro phosphorylated by Src, transfected SA in HEK 293, Western blot",bound more strongly to the SA region than the phosphorylated pK15 CT^Y481F mutant
same,"interaction with PLCγ1 SA, unphosphorylated (GST-pulldown)",PLCγ1 SA; without prior in vitro phosphorylation by Src kinase,marginal binding to PLCγ1 SA

# From PMC8244865, “Recruitment of phospholipase Cγ1 to the non-structural membrane protein pK15 of Kaposi Sarcoma-associated herpesvirus promotes its Src-dependent phosphorylation” (PLoS Pathogens, 2021)
